The values below come from paper PMC10183829, “Shuffled ATG8 interacting motifs form an ancestral bridge between UFMylation and autophagy” (The EMBO Journal, 2023).

The target in assay [1] is GST-ATG8A (Arabidopsis thaliana) (UniProt Q8LEM4). Description: microscopy-based on-bead protein-protein interaction assay.
The target of the next assay is GST-GABARAP (UniProt O95166). Description: microscopy-based protein-protein interaction assay (on-bead binding, confocal). The note with it: 1 μM C53 protein; glutathione-sepharose beads with GST-GABARAP; parent: est. 1.0; read off a plot.
Chain of GST-GABARAP (O95166 whole entry): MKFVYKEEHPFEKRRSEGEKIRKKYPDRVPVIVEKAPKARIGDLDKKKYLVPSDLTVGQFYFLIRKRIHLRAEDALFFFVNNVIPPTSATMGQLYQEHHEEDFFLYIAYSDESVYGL

Chain of GST-ATG8A (Arabidopsis thaliana) (Q8LEM4 1-117): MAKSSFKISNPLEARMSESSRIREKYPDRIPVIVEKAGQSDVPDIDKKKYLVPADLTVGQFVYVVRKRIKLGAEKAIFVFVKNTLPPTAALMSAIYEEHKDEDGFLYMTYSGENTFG

Turning to “mCh-AtC53^cAIM (IDWD274WDDI, IDWD285WDDI, IDWD333WDDI) (natural protein)”, the percent more efficiently recruited than the wild type in assay [1] is 22%.

For “mCh-AtC53, Q9FG23 IDWD274WDDI; IDWD285WDDI; IDWD333WDDI”, in the assay with GST-GABARAP, the response (normalized fluorescence) came out at 1.4.
